Tests used:
[1] = target: IL-1 receptor type I (IL-1R1) on SW982 synoviocytes / HUVEC (human) (UniProt P14778); test: cell-based or functional assay
[2] = target: T1, IL-1β (Homo sapiens (Human), UniProt P01584 117-269); test: cell-based or functional assay
[3] = target: T1, IL-1β; test: ECL (Origen) competition of complex formation: antibody titrated against biotinylated sIL-1 receptor (1 nM), IL-1β (1 nM), ruthenium-tagged IL-1RacP (5 nM)
Method: The resulting complexes were captured using magnetic streptavidin-coated beads and an Origen® Analyzer (IGEN Inc.) measured an ECL signal proportional to the ruthenium tag captured in the complex to evaluate competition of complex formation.
After a 1-hour incubation, the resulting complexes were captured using magnetic streptavidin-coated beads. Competition of complex formation was evaluated using an Origen® Analyzer (IGEN Inc.), which measures an ECL signal proportional to the ruthenium tag captured in the complex.

IL-1 receptor type I (IL-1R1) on SW982 synoviocytes / HUVEC (human), sequence (P14778 18-569): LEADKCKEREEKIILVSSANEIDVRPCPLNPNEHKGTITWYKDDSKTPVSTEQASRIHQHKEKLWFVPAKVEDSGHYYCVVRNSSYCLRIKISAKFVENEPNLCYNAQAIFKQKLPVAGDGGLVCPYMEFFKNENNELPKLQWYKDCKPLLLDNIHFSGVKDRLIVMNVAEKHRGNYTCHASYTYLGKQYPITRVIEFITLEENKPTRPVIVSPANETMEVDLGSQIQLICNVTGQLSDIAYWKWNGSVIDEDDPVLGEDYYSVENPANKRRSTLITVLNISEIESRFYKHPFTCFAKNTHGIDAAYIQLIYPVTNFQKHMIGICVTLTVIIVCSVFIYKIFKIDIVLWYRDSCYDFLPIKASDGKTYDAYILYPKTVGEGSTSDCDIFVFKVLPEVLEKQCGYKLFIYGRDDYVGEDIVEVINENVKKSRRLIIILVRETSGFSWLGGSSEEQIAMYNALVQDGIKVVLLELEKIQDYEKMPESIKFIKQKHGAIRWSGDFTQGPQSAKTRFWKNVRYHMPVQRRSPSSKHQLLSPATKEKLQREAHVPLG

Row | IC50 (pM), IL-1β-dependent GROα production in HUVEC [1] | IC50 (pM), IL-1β-dependent GROα production in HUVEC [2] | IC50 [3] | Molecule
1 | 2930 pM | – | – | IL-1ra (from UniProt P18510 26-177) (ligand)
2 | – | 171 pM | 0.476 nM | MAB201 murine monoclonal anti-IL-1β antibody (R&D Systems) (antibody, V domains shown, Commercial murine monoclonal; light chain is kappa; also called Mouse; mouse monoclonal MAB201) VH: QVTLKESGPGILKPSQTLSLTCSFSGFSLSTSGMGVGWIRQPSGKGLEWLAHIWWDGDESYNPSLKTRLTISKNTSRNQVFLKITTVDTVDTATYFCARNRYDPPWFVDWGQGTLVTVSS VL: DIQMTQTTSSLSASLGDRVTISCRASQDISNYLSWYQQKPDGTVKLLIYYTSKLHSGVPSRFSGSGSGTDYFLTISNLEQEDIATYFCLQGKMLPWTFGGGTKLEIK

Source: patent publication US20050084493A1 (Amgen, published 2005)
